{
  "source": "patent US20150065434A1",
  "about": "(MUSC FOUNDATION FOR RESEARCH DEVELOPMENT, published 2015)",
  "key": {"[1]": {"molecular_target": "T1, human monoamine oxidase B (human, UniProt P27338 1-520, limits assumed)", "T1 sequence (looked up)": "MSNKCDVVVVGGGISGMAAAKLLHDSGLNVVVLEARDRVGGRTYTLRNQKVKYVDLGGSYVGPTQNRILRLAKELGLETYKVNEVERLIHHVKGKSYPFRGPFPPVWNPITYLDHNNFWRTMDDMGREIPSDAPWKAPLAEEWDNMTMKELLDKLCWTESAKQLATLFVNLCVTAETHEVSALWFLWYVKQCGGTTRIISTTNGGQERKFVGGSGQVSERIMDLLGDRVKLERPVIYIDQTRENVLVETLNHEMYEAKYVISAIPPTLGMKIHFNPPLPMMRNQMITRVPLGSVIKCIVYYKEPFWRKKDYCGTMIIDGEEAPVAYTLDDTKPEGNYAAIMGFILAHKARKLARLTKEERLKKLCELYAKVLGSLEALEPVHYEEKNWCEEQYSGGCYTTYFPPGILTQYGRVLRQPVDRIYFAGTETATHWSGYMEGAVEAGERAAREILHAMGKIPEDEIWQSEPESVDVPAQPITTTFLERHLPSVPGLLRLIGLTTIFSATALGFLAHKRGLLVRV", "assay": "cell-based or functional assay"}, "[2]": {"molecular_target": "T2, human monoamine oxidase A (human, UniProt P21397 1-527, limits assumed)", "T2 sequence (looked up)": "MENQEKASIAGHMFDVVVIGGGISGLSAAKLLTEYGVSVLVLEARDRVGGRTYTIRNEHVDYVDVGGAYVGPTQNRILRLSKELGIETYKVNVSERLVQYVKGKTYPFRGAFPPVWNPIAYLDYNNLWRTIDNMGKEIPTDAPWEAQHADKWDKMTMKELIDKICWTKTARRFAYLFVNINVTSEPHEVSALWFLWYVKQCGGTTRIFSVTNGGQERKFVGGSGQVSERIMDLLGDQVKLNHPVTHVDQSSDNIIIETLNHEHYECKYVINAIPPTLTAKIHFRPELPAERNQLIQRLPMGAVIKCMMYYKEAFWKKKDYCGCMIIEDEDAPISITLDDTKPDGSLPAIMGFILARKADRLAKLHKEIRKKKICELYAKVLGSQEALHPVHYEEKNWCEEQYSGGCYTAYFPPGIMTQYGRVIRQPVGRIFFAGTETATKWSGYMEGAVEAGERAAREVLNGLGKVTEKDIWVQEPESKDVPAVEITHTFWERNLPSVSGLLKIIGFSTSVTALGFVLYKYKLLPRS", "assay": "cell-based or functional assay"}},
  "note": "Bridge positions count the residues as written; N and C are the ends. Ends that are not written are not given here.",
  "data": [
    {"binder": "ARTMKTARKETGGKAPRKQLA-NH2 (lactam 5-10)", "note": "[[Met]^4 H3 (1-21)-NH2 cyclic peptide 11, lactam bridge between Lys5 and Glu10]", "values": [
      {"measurement": "IC50 (inhibition of MAO-B)", "setting": "[1]", "value": "> 100", "unit": "µM"},
      {"measurement": "IC50 (inhibition of MAO-A)", "setting": "[2]", "value": "> 100", "unit": "µM"}
    ]}
  ]
}
